± gives the uncertainty stated by the source.
Test: self-splicing fitness, log relative to wild type (ln ratio); higher = more splicing; Tetrahymena group I intron in knt gene, E. coli kanamycin selection, DiMSum; sequences stand for … in CUCUCU…GGAGGGAAAAGUUAUCAGGCAUGCACCUGGUAGCUAGUCUUUAAACCAAUAGAUUGCAUCGGUUUAAAAGGCAAGACCGUCAAAUUGCGGGAAAGGGGUCAACAGCCGUUCAGUACCAAGUCUCAGGGGAAACUUUGAGAUGGCCUUGCAAAGGGUAUGGUAAUAAGCUGACGGACAUGGUCCUAACCACGCAGCCAAGUCCUAAGUCAACAGAUCUUCUGUUGAUAUGGAUGCAGUUCACAGACUAAAUGUCGGUCGGGGAAGAUGUAUUCUUCUCAUAAGAUAUAGUCGGACCUCUCCUUAAUGGGAGCUAGCGGAUGAAGUGAUGCAACACUGGAGCCGCUGGGAACUAAUUUGUAUGCGAAAGUAUAUUGAUUAGUUUUGGAGUACUCGUGGUCG
Procedure, shortened: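 Pooled colonies went to amplicon sequencing on an Illumina HiSeq 2500 after six replicate transformations. The plates were LB agar with 100 μg/mL carbenicillin, 50 μM IPTG and 0.2% rhamnose, with or without 25 μg/mL kanamycin, incubated overnight at 37°C or 30°C. The E. coli BL21(DE3) library had all eight P1ex-region intron nucleotides randomised, the intron placed in the knt kanamycin-resistance gene on pET-22b(+). DiMSum fitness is the error-weighted combination of replicate fold changes, kanamycin against none, normalised to wild type.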

Sequence	self-splicing fitness (ln) (30 °C)	self-splicing fitness (ln) (37 °C)
UGAUAGCAAUAUUACGUCAU	-3.03 ± 0.27	-2.16 ± 0.2
UCGAAGCAAUAUUACGCGAU	-3.31 ± 0.32	–
AAUCAGCAAUAUUACGAAUA	0.443 ± 0.16	-0.266 ± 0.12
AAACAGCAAUAUUACGCCGA	-1.99 ± 0.087	-1.35 ± 0.09
CUUGAGCAAUAUUACGCGGA	-2.71 ± 0.33	-3.47 ± 0.31
AGUAAGCAAUAUUACGAAAC	-3.94 ± 0.36	–
GAUUAGCAAUAUUACGAGCU	-1.23 ± 0.088	-0.791 ± 0.16
CAAAAGCAAUAUUACGCUUA	-3.17 ± 0.23	-2.17 ± 0.15
UCAUAGCAAUAUUACGUGGA	-2.02 ± 0.11	-1.24 ± 0.093
GUUAAGCAAUAUUACGAGUU	-1.36 ± 0.11	-0.688 ± 0.14
AAGUAGCAAUAUUACGUUUU	-2.71 ± 0.13	-2.17 ± 0.17
AAGUAGCAAUAUUACGAAAA	-2.83 ± 0.28	-2.14 ± 0.26
CACCAGCAAUAUUACGAAAG	-0.231 ± 0.041	-0.141 ± 0.064
GCGCAGCAAUAUUACGCCUG	-2.75 ± 0.15	-1.48 ± 0.15
GCUUAGCAAUAUUACGUGAA	-0.117 ± 0.064	0.311 ± 0.074
ACUAAGCAAUAUUACGCUUC	-1.69 ± 0.17	-0.717 ± 0.14
UCUGAGCAAUAUUACGAAGC	–	-1.48 ± 0.37
UAUCAGCAAUAUUACGGCCG	-0.163 ± 0.11	0.391 ± 0.16
UCGGAGCAAUAUUACGUAAG	-2.77 ± 0.46	-1.39 ± 0.42
UCGAAGCAAUAUUACGACAU	-3.755 ± 0.027	-2.29 ± 0.038

Sequence	self-splicing fitness (ln) (30 °C)	self-splicing fitness (ln) (37 °C)
CCCAAGCAAUAUUACGUGCG	-4.13 ± 0.21	-2.28 ± 0.18
UGUUAGCAAUAUUACGCAUA	-1.72 ± 0.21	-0.397 ± 0.16
GCCGAGCAAUAUUACGAGUC	-1.86 ± 0.14	-0.892 ± 0.16
AUUGAGCAAUAUUACGAGAG	–	-2.66 ± 0.29
UCGAAGCAAUAUUACGGAUG	-2.8 ± 0.13	-1.68 ± 0.11
GAAAAGCAAUAUUACGCCCG	-0.583 ± 0.14	-0.75 ± 0.21
UCGUAGCAAUAUUACGAAGU	-3.58 ± 0.47	-3.06 ± 0.35
UUAUAGCAAUAUUACGCAAA	-2.85 ± 0.22	-1.51 ± 0.16
GGUGAGCAAUAUUACGCCUG	–	-1.47 ± 0.28
AGUUAGCAAUAUUACGUUGC	-4.72 ± 0.41	-2.21 ± 0.21
CCGGAGCAAUAUUACGGGCC	–	-2.03 ± 0.33
ACGGAGCAAUAUUACGAGGU	-2.12 ± 0.22	-2.5 ± 0.29
CCUUAGCAAUAUUACGUCUU	-3.66 ± 0.16	-2.61 ± 0.17
CAGAAGCAAUAUUACGACCA	-0.857 ± 0.24	–
CCCCAGCAAUAUUACGCCCC	-2.98 ± 0.38	–
AACCAGCAAUAUUACGUAUC	-2.57 ± 0.097	-1.39 ± 0.1
UCCUAGCAAUAUUACGCCAA	-3.18 ± 0.28	-2.5 ± 0.25
UCACAGCAAUAUUACGCAGG	-3.13 ± 0.13	-1.52 ± 0.11
GCGUAGCAAUAUUACGGACA	-1.31 ± 0.17	-0.534 ± 0.13
GAUAAGCAAUAUUACGCCAU	-2.79 ± 0.21	-1.72 ± 0.17

Reference: the supplement of paper PMC7877785
